According to US20220288226A1 (ENOSI LIFE SCIENCES, published 2022):
Blank lines part the entries; values can stand above or below the binder they belong to.

What was measured:
[1] = target: T1, extracellular domain of TNFR-1 (human, UniProt P19438 30-211); experiment: SPR (Biacore), Vhh on TNFR1 extracellular domain
T1 construct: The construct limits, tag, supplier and species are not restated there; also called TNFR1 extracellular domain; tumor necrosis factor receptor-1 (TNFR1)
T1 sequence: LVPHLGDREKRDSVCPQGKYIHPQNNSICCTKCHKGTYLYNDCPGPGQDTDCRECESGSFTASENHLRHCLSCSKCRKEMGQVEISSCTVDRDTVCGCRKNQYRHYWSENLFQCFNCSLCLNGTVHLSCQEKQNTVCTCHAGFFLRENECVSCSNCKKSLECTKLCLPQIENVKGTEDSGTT
Procedure: (§1) Each of Vhh 1-4 subsequently was tested in binding studies using the surface plasmon resonance (SPR) method (Sciences GL. Biacore Assay Handbook. General Electric Company (2012); and Richter et al. (2019) MAbs 11:166-177). Competition assays of Vhh inhibition of TNF-a binding to TNFR1 extracellular domain also were performed as described in Richter et al. (2019).

[2] = target: T2, TNFR1 on cells (human, UniProt P19438 30-455); experiment: cell-based or functional assay
T2 sequence: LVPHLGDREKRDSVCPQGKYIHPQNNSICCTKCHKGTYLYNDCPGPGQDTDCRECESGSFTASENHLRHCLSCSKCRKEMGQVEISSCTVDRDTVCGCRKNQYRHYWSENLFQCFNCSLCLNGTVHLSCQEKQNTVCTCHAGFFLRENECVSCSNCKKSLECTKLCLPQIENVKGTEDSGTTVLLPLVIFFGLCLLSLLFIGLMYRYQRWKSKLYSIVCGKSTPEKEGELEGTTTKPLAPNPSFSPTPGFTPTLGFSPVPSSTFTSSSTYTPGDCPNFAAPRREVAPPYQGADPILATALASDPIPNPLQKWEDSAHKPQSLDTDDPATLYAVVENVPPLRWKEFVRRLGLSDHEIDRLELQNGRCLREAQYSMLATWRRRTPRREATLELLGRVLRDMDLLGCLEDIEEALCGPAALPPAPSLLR

[3] = target: T1, extracellular domain of TNFR-1; experiment: competition assay, Vhh inhibition of TNF binding to TNFR1; competitor TNF-a
Procedure: as §1

Kd [1]: 1000 nM
TNF Dependent Bioassay (IC50): VCAM [2]: 3 nM
B1: Vhh-2 (VHH, not shown: small tags and cut ends)
VHH: EVQLLESGGGLVQPGGSLRLSCAASGFTFSQYRMHWVRQAPGKSLEWVSSIDTRGSSTYYADPVKGRFTISRDNSKNTLYLQMNSLRAEDTAVYYCAKAVTMFSPFFDYWGQGTLV
notes: it is placed last only by convention; also called Recombinant human anti-TNFRSF1A single domain antibody

Kd [1]: 0.00066 nM
TNF Dependent Bioassay (IC50): VCAM [2]: 0.3 nM
IC50 [3]: ~1 nM
B2: Vhh-4 (VHH)
VHH: EVQLLESGGGLVQPGGSLRLSCAASGFTFAHETMVWVRQAPGKGLEWVSHIPPDGQDPFYADSVKGRFTISRDNSKNTLYLQMNSLRAEDTAVYHCALLPKRGPWFDYWGQGTLVTVSS
notes: also called DOM1h-131-206
